Test results from patent US20240391961A1.
Like-named read-outs stand apart in the source and are kept apart here.

How the values were obtained:
[1] = biological target: 14-3-3ζ nhpSer58 with a FLAG tag at its N-terminus (Homo sapiens (Human)) (UniProt P63104); assay: pulldown from HEK293 lysate, MS; nhpSer58 bait vs WT bait (reference)
[2] = biological target: 14-3-3ζ nhpSer58 with a FLAG tag at its N-terminus (Homo sapiens (Human)) (UniProt P63104)

Sequence of 14-3-3ζ nhpSer58 with a FLAG tag at its N-terminus (Homo sapiens (Human)) (P63104 whole entry): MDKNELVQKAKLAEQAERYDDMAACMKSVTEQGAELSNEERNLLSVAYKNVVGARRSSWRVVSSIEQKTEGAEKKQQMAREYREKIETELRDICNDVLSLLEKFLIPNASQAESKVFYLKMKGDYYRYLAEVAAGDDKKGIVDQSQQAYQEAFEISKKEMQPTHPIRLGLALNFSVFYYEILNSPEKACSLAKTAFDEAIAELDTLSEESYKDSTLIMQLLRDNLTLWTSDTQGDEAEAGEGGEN

Row | Substance | FC [2] | also measured
1 | 14-3-3 protein zeta/delta [OS = Homo sapiens] (from UniProt P63104 1-245) |  | FC [1]: 0.0821 fold; Log2(FC) [1]: -3.61 log2
2 | A-kinase anchor protein 9 [OS = Homo sapiens], Q99996 1-3907 | 0.0561 fold | 
3 | Acyl-CoA dehydrogenase family member 10 [OS = Homo sapiens] (from UniProt Q6JQN1 1-1059) | 4.04 fold | 
4 | Annexin A2 [OS = Homo sapiens] (from UniProt P07355 2-339) | 24.6 fold | 
5 | Apoptosis-stimulating of p53 protein 2 [OS = Homo sapiens] (from UniProt Q13625 1-1128) | 6.29 fold | 
6 | Arginase-1 [OS = Homo sapiens] (from UniProt P05089 1-322) | 6.22 fold | 
7 | BRCA2-interacting transcriptional repressor EMSY [OS = Homo sapiens] (from UniProt Q7Z589 1-1322) | 9.69 fold | 
8 | Centrosomal protein of 55 kDa [OS = Homo sapiens] (from UniProt Q53EZ4 1-464) | 4.5 fold | 
9 | Cleavage stimulation factor subunit 3 [OS = Homo sapiens] (from UniProt Q12996 2-717) | 8.68 fold | 
10 | Cyclin-dependent kinase 2-associated protein 1 [OS = Homo sapiens] (from UniProt O14519 1-115) | 4.42 fold | 
11 | Cytochrome c oxidase subunit 5A, mitochondrial [OS = Homo sapiens] (from UniProt P20674 42-150) | 0.223 fold | 
12 | DNA methyltransferase 1-associated protein 1 [OS = Homo sapiens] (from UniProt Q9NPF5 1-467) | 6.86 fold | 
13 | Desmoglein-1 [OS = Homo sapiens] (from UniProt Q02413 50-1049) | 7.08 fold | 
14 | E3 ubiquitin-protein ligase MYCBP2 [OS = Homo sapiens] (from UniProt O75592 1-4678) | 0.234 fold | 
15 | Exportin-1 [OS = Homo sapiens] (from UniProt O14980 1-1071) | 7.95 fold | 
16 | F-box only protein 50 [OS = Homo sapiens] (from UniProt Q6ZVX7 1-275) | 4.55 fold | 
17 | HAUS augmin-like complex subunit 5 [OS = Homo sapiens] (from UniProt O94927 1-633) | 7.34 fold | 
18 | Intraflagellar transport protein 22 homolog [OS = Homo sapiens] (from UniProt Q9H7X7 1-185) | 16.3 fold | 
19 | Intraflagellar transport protein 81 homolog [OS = Homo sapiens] (from UniProt Q8WYA0 2-676) | 21.9 fold | 
20 | Junction plakoglobin [OS = Homo sapiens] (from UniProt P14923 1-745) | 4.8 fold | 

Row | Substance | FC [2] | also measured
21 | Keratin, type I cytoskeletal 13 [OS = Homo sapiens] (from UniProt P13646 1-458) | 8.89 fold | 
22 | Keratin, type II cytoskeletal 78 [OS = Homo sapiens] (from UniProt Q8N1N4 1-520) | 6.98 fold | 
23 | Ketosamine-3-kinase [OS = Homo sapiens] (from UniProt Q9HA64 1-309) | 9.56 fold | 
24 | Melanoma-associated antigen D2 [OS = Homo sapiens] (from UniProt Q9UNF1 2-606) | 63.1 fold | 
25 | Neurofibromin [OS = Homo sapiens] (from UniProt P21359 2-2839) | 0.165 fold | 
26 | Platelet-activating factor acetylhydrolase IB subunit alpha [OS = Homo sapiens] (from UniProt P43034 1-410) | 7.47 fold | 
27 | Polyadenylate-binding protein 1 [OS = Homo sapiens] (from UniProt P11940 1-636) | 0.182 fold | 
28 | Pre-mRNA-splicing factor ATP-dependent RNA helicase DHX15 [OS = Homo sapiens] (from UniProt O43143 1-795) | 6.21 fold | 
29 | Protein S100-A7 [OS = Homo sapiens] (from UniProt P31151 2-101) | 64.8 fold | 
30 | Protein S100-A9 [OS = Homo sapiens] (from UniProt P06702 1-114) | 4.73 fold | 
31 | Protein cereblon [OS = Homo sapiens] (from UniProt Q96SW2 1-442) | 8.91 fold | 
32 | Protein disulfide-isomerase A6 [OS = Homo sapiens] (from UniProt Q15084 20-440) | 38.4 fold | 
33 | SAGA-associated factor 29 [OS = Homo sapiens] (from UniProt Q96ES7 1-293) | 9.02 fold | 
34 | Serpin B4 [OS = Homo sapiens] (from UniProt P48594 1-390) | 36.3 fold | 
35 | Talin-1 [OS = Homo sapiens] (from UniProt Q9Y490 1-2541) | 12.7 fold | 
36 | Translin-associated protein X [OS = Homo sapiens] (from UniProt Q99598 1-290) | 6.28 fold | 
37 | exosome complex exonuclease RRP44 [OS = Homo sapiens] (from UniProt Q9Y2L1 1-958) | 5.09 fold | 
38 | nuclear pore complex protein Nup98-Nup96 [OS = Homo sapiens] (from UniProt P52948 1-1817) | 5.93 fold | 
39 | opioid growth factor receptor [OS = Homo sapiens] (from UniProt Q9NZT2 1-677) | 7.06 fold | 
40 | striatin [OS = Homo sapiens] (from UniProt O43815 1-780) | 4.33 fold | 
